± gives the uncertainty stated by the source.
Assay: self-splicing fitness, log relative to wild type (ln ratio); higher = more splicing; Tetrahymena group I intron in knt gene, E. coli kanamycin selection, DiMSum; sequences stand for … in CUCUCU…GGAGGGAAAAGUUAUCAGGCAUGCACCUGGUAGCUAGUCUUUAAACCAAUAGAUUGCAUCGGUUUAAAAGGCAAGACCGUCAAAUUGCGGGAAAGGGGUCAACAGCCGUUCAGUACCAAGUCUCAGGGGAAACUUUGAGAUGGCCUUGCAAAGGGUAUGGUAAUAAGCUGACGGACAUGGUCCUAACCACGCAGCCAAGUCCUAAGUCAACAGAUCUUCUGUUGAUAUGGAUGCAGUUCACAGACUAAAUGUCGGUCGGGGAAGAUGUAUUCUUCUCAUAAGAUAUAGUCGGACCUCUCCUUAAUGGGAGCUAGCGGAUGAAGUGAUGCAACACUGGAGCCGCUGGGAACUAAUUUGUAUGCGAAAGUAUAUUGAUUAGUUUUGGAGUACUCGUGGUCG
How it was run: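 Library with all eight P1ex-region intron nucleotides randomised, intron inside the knt kanamycin-resistance gene on pET-22b(+), in E. coli BL21(DE3). Cells grew overnight at 37°C or 30°C on LB agar with or without 25 μg/mL kanamycin (plus 100 μg/mL carbenicillin, 50 μM IPTG, 0.2% rhamnose), in six replicate transformations. Pooled colonies were amplicon-sequenced on Illumina HiSeq 2500. DiMSum fitness is the error-weighted combination of wild-type-normalised replicate fold changes, kanamycin versus none.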

Row | Sequence | self-splicing fitness (ln) (30 °C) | self-splicing fitness (ln) (37 °C)
1 | CGUUAGCAAUAUUACGGCGU | -3.75 ± 0.31 | -0.556 ± 0.19
2 | GCAUAGCAAUAUUACGCAUC | -3.1 ± 0.23 | -3.22 ± 0.27
3 | CCCAAGCAAUAUUACGUAGA | -3.94 ± 0.17 | -3.16 ± 0.18
4 | ACACAGCAAUAUUACGUCAC | -3.22 ± 0.16 | -2.86 ± 0.27
5 | CUCAAGCAAUAUUACGACAG | -1.19 ± 0.062 | -0.407 ± 0.082
6 | GUUUAGCAAUAUUACGAAAU | -1.54 ± 0.11 | -1.85 ± 0.19
7 | AAGAAGCAAUAUUACGGGUC | -4.04 ± 0.35 | -1.69 ± 0.21
8 | CAAAAGCAAUAUUACGUUUG | -3.08 ± 0.14 | -2.55 ± 0.18
9 | GUCUAGCAAUAUUACGGCUU | -0.982 ± 0.12 | 0.12 ± 0.14
10 | GAAAAGCAAUAUUACGCUAG | -1.8 ± 0.076 | -1.57 ± 0.099
11 | UAGCAGCAAUAUUACGUUAC | – | -1.36 ± 0.22
12 | UAUAAGCAAUAUUACGCCAG | -0.478 ± 0.21 | -0.728 ± 0.27
13 | CCCCAGCAAUAUUACGGCUA | -3.77 ± 0.16 | -2.34 ± 0.13
14 | GAGAAGCAAUAUUACGACUG | -0.535 ± 0.062 | -0.0404 ± 0.073
15 | UAGGAGCAAUAUUACGUUAC | – | -2.08 ± 0.32
16 | CACUAGCAAUAUUACGUUGA | -3.56 ± 0.2 | -2.24 ± 0.16
17 | GUUUAGCAAUAUUACGUUGC | -3.73 ± 0.27 | -2.59 ± 0.34
18 | CACCAGCAAUAUUACGUGGC | -3.65 ± 0.17 | -2.98 ± 0.21
19 | AAAUAGCAAUAUUACGUGCG | -0.841 ± 0.13 | -0.149 ± 0.15
20 | CUAUAGCAAUAUUACGCCCA | -3.06 ± 0.37 | -1.7 ± 0.43
21 | AGAAAGCAAUAUUACGGUUA | -0.628 ± 0.1 | -0.679 ± 0.083
22 | UUCCAGCAAUAUUACGGAAC | – | -3.19 ± 0.4
23 | UCCUAGCAAUAUUACGAGAG | -3.57 ± 0.17 | -2.51 ± 0.2
24 | CUGUAGCAAUAUUACGAUGC | -2.62 ± 0.17 | –
25 | CUCUAGCAAUAUUACGGCUG | -2.87 ± 0.24 | -2.31 ± 0.25
26 | UUCUAGCAAUAUUACGAGUG | 0.0611 ± 0.065 | 0.118 ± 0.094

Row | Sequence | self-splicing fitness (ln) (30 °C) | self-splicing fitness (ln) (37 °C)
27 | UUGGAGCAAUAUUACGCGAG | -1.15 ± 0.13 | -1.8 ± 0.21
28 | AAGCAGCAAUAUUACGCUUG | -2.89 ± 0.16 | -2.14 ± 0.16
29 | CGUCAGCAAUAUUACGGGCC | -1.25 ± 0.087 | -0.797 ± 0.11
30 | GCUAAGCAAUAUUACGAAGU | -3.47 ± 0.17 | -3.01 ± 0.34
31 | CUCCAGCAAUAUUACGUGCU | -3.06 ± 0.11 | -2.58 ± 0.14
32 | AAAAAGCAAUAUUACGAGCC | -2.31 ± 0.2 | -1.28 ± 0.27
33 | ACUCAGCAAUAUUACGUAAA | -1.36 ± 0.069 | -0.79 ± 0.09
34 | GUACAGCAAUAUUACGAGUG | -3.17 ± 0.34 | -1.25 ± 0.18
35 | AUGAAGCAAUAUUACGCAGA | -1.63 ± 0.12 | -0.868 ± 0.1
36 | CGUCAGCAAUAUUACGCCGG | -1.69 ± 0.12 | -1.27 ± 0.17
37 | CCUCAGCAAUAUUACGGCAG | -2.91 ± 0.18 | -1.15 ± 0.13
38 | UUGUAGCAAUAUUACGGUGA | -1.11 ± 0.093 | -0.318 ± 0.097
39 | CUGAAGCAAUAUUACGAUUC | -3.13 ± 0.23 | -2.5 ± 0.29
40 | CACCAGCAAUAUUACGCGAA | -4.18 ± 0.21 | -2.04 ± 0.12
41 | UGAAAGCAAUAUUACGCCCG | -0.527 ± 0.15 | -0.0303 ± 0.21
42 | AAGCAGCAAUAUUACGUGUA | -1.83 ± 0.081 | -0.134 ± 0.077
43 | CGAUAGCAAUAUUACGCUGC | -3.15 ± 0.36 | -2.21 ± 0.5
44 | UACGAGCAAUAUUACGGUGA | -3.12 ± 0.18 | -1.21 ± 0.13
45 | CCGGAGCAAUAUUACGAGAU | -3.24 ± 0.18 | -3.52 ± 0.35
46 | CCCCAGCAAUAUUACGUCAA | -3.29 ± 0.12 | -3 ± 0.16
47 | CGGUAGCAAUAUUACGAUUA | -2.71 ± 0.31 | 0.554 ± 0.2
48 | CUGCAGCAAUAUUACGGACU | -3.58 ± 0.21 | -1.33 ± 0.15
49 | GAAUAGCAAUAUUACGCUAA | -2.59 ± 0.25 | -1.05 ± 0.25
50 | ACAGAGCAAUAUUACGCGUG | -1.81 ± 0.081 | -1.87 ± 0.1
51 | GAAUAGCAAUAUUACGAAGG | -2.77 ± 0.27 | –
52 | UUAUAGCAAUAUUACGACCA | -0.882 ± 0.2 | -0.384 ± 0.21

Row | Sequence | self-splicing fitness (ln) (30 °C) | self-splicing fitness (ln) (37 °C)
53 | AUCAAGCAAUAUUACGCCGG | -1.22 ± 0.19 | 0.522 ± 0.2
54 | UUAUAGCAAUAUUACGCUUA | -1.92 ± 0.33 | -1.09 ± 0.26
55 | ACUCAGCAAUAUUACGAAAA | -1.32 ± 0.11 | -1.36 ± 0.16
56 | CGGGAGCAAUAUUACGUACG | -2.98 ± 0.11 | -1.53 ± 0.097
57 | ACCUAGCAAUAUUACGGGAG | -1.93 ± 0.072 | -1.41 ± 0.088
58 | GUCGAGCAAUAUUACGCAAG | -3.6 ± 0.27 | -2.71 ± 0.3
59 | UGGUAGCAAUAUUACGAAAG | -3.06 ± 0.26 | –
60 | GAGUAGCAAUAUUACGGCUA | -1.11 ± 0.29 | -1.37 ± 0.31
61 | GAGAAGCAAUAUUACGCAGC | -3.2 ± 0.38 | -1.48 ± 0.26
62 | CAAAAGCAAUAUUACGUGUU | -3.61 ± 0.13 | -2.37 ± 0.13
63 | UUGUAGCAAUAUUACGAGGG | – | -1.87 ± 0.4
64 | AUCCAGCAAUAUUACGCACC | -1.19 ± 0.13 | 0.657 ± 0.17
65 | GACUAGCAAUAUUACGGGAU | -1.59 ± 0.14 | -0.788 ± 0.14
66 | AAUUAGCAAUAUUACGUUAA | -1.19 ± 0.12 | -0.801 ± 0.17
67 | CAUGAGCAAUAUUACGGAUG | -3.02 ± 0.31 | -2.01 ± 0.26
68 | AAUCAGCAAUAUUACGCUUU | -0.193 ± 0.067 | 0.378 ± 0.1
69 | GUGCAGCAAUAUUACGCGUC | -3.39 ± 0.3 | -1.4 ± 0.21
70 | UAGAAGCAAUAUUACGGAUA | -1.18 ± 0.1 | -0.43 ± 0.11
71 | GAUAAGCAAUAUUACGCUUC | – | -3.04 ± 0.29
72 | CUAAAGCAAUAUUACGAAUU | -3.57 ± 0.29 | -3.9 ± 0.36
73 | AUACAGCAAUAUUACGUUCG | -1.69 ± 0.071 | -1.15 ± 0.093
74 | UGGGAGCAAUAUUACGUCCC | -3.01 ± 0.4 | -1.84 ± 0.41
75 | AAAUAGCAAUAUUACGAAGC | -3.18 ± 0.47 | –
76 | CGCAAGCAAUAUUACGCCGA | -2.85 ± 0.26 | -2 ± 0.18
77 | GCGAAGCAAUAUUACGUGGU | -3.09 ± 0.17 | -2.92 ± 0.2
78 | AUCGAGCAAUAUUACGGCGG | -2.61 ± 0.14 | -1.36 ± 0.14
